In patent publication US20240132622A1 (Bristol-Myers Squibb, published 2024):

Key:
recombinant human PAD4 [1] = target: T1, recombinant human PAD4 (human, UniProt Q9UM07 1-663); assay: SPR 37 C, captured antibody, PAD4 analyte, 2 mM EDTA
T1 construct: also called rhPAD4; hPAD4
Protocol: (§1) For SPR measurements, either an anti-human capture surface or Protein A surface (Cytiva catalog #29127555) was used. Anti-human capture surface was prepared by immobilizing anti-human capture antibody (Cytiva catalog #29234600) onto flow cells of a CM5 or CM4 biosensor following the manufacturer's amine coupling protocol (Cytiva catalog #BR-1006-33). SPR experiments were conducted at 37° C. using HBS-P (150 mM NaCl, 10 mM HEPES, pH 7.6, 0.05% Tween-20) (TEKNOVA catalog #H8032) with additional 150 mM NaCl and 1 mM or 2 mM CaCl₂) (see Table 2) or 2 mM EDTA (see Table 3) as running buffer. Antibodies were diluted to 1.5 μg/mL in the running buffer, and were captured across active biosensor flow cells at 10 μL/min for 15 to 30 seconds. […] The association and dissociation of the antibodies with PAD4 were measured. One 30 second injection followed by one 15 second injection of 10 mM glycine pH 1.5 was used to regenerate the Protein A capture surface between assay cycles. For anti-human capture surface, two 30 second injections of 3 M MgCl₂ was used for regeneration. SPR measurements for mAb20 and mAb 13 SPR were done in the presence of 2 mM CaCl₂). The remaining antibodies were tested in the presence of 1 mM CaCl₂).
(§2) Rate constants kₒₙ and koff were derived from reference flow cell- and 0 nM blank-subtracted sensorgrams, and were fit to a 1:1 binding model in Biacore® Insight Evaluation software version 3.0.12.15655. Deviations from 1:1 binding model were observed, which may be caused by increased dimerization of PAD4 at higher concentrations. The equilibrium dissociation constant, KD, was calculated as the ratio of rate constants koff/kₒₙ for each PAD4 antibody. For those antibodies that were tested in multiple SPR experiments, the average value and standard deviation from two or three separate experiments are listed in Tables 2 and 3.

recombinant human PAD4 [2] = target: T1, recombinant human PAD4; assay: SPR 37 C, captured antibody, PAD4 analyte, 1 mM CaCl2
Protocol: Their binding to human PAD4 was measured by Surface Plasmon Resonance (SPR). SPR measurements were performed with a Biacore® 8K, 8K+, or T200 instrument (Cytiva). The association rate constants, kₒₙ, dissociation rate constants, koff, and equilibrium dissociation constants, KD, of the antibodies with PAD4 were determined from these SPR measurements.
as §1
as §2, with “antibody.” for “antibody. For those antibodies that were tested in multiple SPR experiments, the average value and standard deviation from two or three separate experiments are listed in Tables 2 and 3.”

[3] = target: extracellular matrix (ECM) proteins; assay: ECM plate ELISA (Matrigel), 1 uM antibody, A450 over wells without sample
recombinant human PAD4 [4] = target: T1, recombinant human PAD4; assay: cell-based or functional assay

T1 sequence (Q9UM07 whole entry): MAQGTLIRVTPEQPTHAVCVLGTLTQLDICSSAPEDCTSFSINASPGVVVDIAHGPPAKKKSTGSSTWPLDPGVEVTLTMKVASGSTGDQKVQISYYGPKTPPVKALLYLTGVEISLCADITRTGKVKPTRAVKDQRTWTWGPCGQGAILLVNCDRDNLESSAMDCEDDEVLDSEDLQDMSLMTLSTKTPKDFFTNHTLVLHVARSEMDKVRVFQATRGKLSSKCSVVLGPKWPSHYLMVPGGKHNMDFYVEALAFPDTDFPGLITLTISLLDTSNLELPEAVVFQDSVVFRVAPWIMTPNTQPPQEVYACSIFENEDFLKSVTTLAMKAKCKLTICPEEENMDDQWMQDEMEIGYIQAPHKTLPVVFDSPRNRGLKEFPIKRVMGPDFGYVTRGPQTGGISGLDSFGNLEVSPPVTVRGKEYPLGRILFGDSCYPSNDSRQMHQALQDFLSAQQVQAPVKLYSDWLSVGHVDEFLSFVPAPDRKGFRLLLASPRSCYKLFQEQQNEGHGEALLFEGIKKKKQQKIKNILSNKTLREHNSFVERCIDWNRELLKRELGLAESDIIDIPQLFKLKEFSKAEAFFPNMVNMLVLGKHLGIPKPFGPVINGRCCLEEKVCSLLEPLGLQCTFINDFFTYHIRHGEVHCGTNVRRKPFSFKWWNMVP

Kd (recombinant human PAD4 [1]) [nM]	koff (recombinant human PAD4 [1]) [s⁻¹]	kon (recombinant human PAD4 [1]) [M⁻¹ s⁻¹]	Kd (recombinant human PAD4 [2]) [nM]	koff (recombinant human PAD4 [2]) [s⁻¹]	kon (recombinant human PAD4 [2]) [M⁻¹ s⁻¹]	ECM Score (1 µM) [3]	IC50 (average), PAD4 citrullination of peptide …, RapidFire MS (recombinant human PAD4 [4]) [nM]	Binder
3	0.00073	240000	1.7	0.00046	270000	1	118	hz20-4 (antibody, V domains shown, light constant region not tied to this antibody) VH: QVQLVQSGAEVKKPGASVKVSCKASGYTFTNYGISWVRQAPGQGLEWMGEIYPRSGNTYHNEKFKDRVTMTADTSTSTVYMELSSLRSEDTAVYYCARSMITTRYWYFDVWGKGTTVTVSS VL: DIVMTQSPDSLAVSLGERATINCRASESVDTYGNSFMHWYQQKPGQPPKLLIYLASNLESGVPDRFSGSGSGTDFTLTISSLQAEDVAVYYCQQNNEDPLTFGAGTKLELK
			0.1	0.0003	2.7e+06			hz13-12 D31E (antibody, human IgG1, kappa, V domains shown, IgG1.3f; also called hz3-12 D31E) VH: EVQLVQSGAEVKKPGATVKISCTSSDFNIKEHFIHWVQQAPGKGLEWMGRIDPEDDETKYAPKFQDRVTITADTSTDTAYMELSSLRSEDTAVYYCAGYGNYEGAMDYWGQGTTVTVSS VL: DVVMTQSPLSLPVTLGQPASISCRASENVNNYGIGFMNWFQQRPGQSPRLLIYAASRRGSGVPDRFSGSGSGTDFTLKISRVEEEDVGVYYCQQSKEVPYTFGGGTKVEIKR
			0.1	0.00015	1.9e+06	1	88.7	hz13-11 (antibody, V domains shown, light constant region not tied to this antibody) VH: EVQLVQSGAEVKKPGATVKISCTSSDFNIKDHFIHWVQQAPGKGLEWMGRIDPEDDETKYAPKFQDRVTITADTSTDTAYMELSSLRSEDTAVYYCAGYGNYEGAMDYWGQGTTVTVSS VL: DVVMTQSPLSLPVTLGQPASISCRASENVNNYGIGFMNWFQQRPGQSPRRLIYAASRRGSGVPDRFSGSGSGTDFTLKISRVEAEDVGVYYCQQSKEVPYTFGGGTKVEIK
			0.1	0.00017	2.2e+06	1	55.8	hz13-10 (antibody, V domains shown, light constant region not tied to this antibody) VH: EVQLVQSGAEVKKPGATVKISCKVSDFNIKDHFIHWVQQAPGKGLEWMGRIDPEDDETKYAPKFQDRVTITADTSTDTAYMELSSLRSEDTAVYYCAGYGNYEGAMDYWGQGTTVTVSS VL: DVVMTQSPLSLPVTLGQPASISCRASENVNNYGIGFMNWFQQRPGQSPRLLIYAASRRGSGVPDRFSGSGSGTDFTLKISRVEEEDVGVYYCQQSKEVPYTFGGGTKVEIK

Second part, the binder before the results:

Binder	Kd (recombinant human PAD4 [1]) [nM]	koff (recombinant human PAD4 [1]) [s⁻¹]	kon (recombinant human PAD4 [1]) [M⁻¹ s⁻¹]	Kd (recombinant human PAD4 [2]) [nM]	koff (recombinant human PAD4 [2]) [s⁻¹]	kon (recombinant human PAD4 [2]) [M⁻¹ s⁻¹]	ECM Score (1 µM) [3]	IC50 (average), PAD4 citrullination of peptide …, RapidFire MS (recombinant human PAD4 [4]) [nM]
hz20-7 (antibody, IgG1, V domains shown, also called clone 20-based hz20-7 antibody) VH: QVQLVQSGAEVKKPGASVKVSCKASGYTFTNYGISWVRQAPGQGLEWMGEIYPRSGNTYHNEKFKDRVTMTTDTSTSTAYMELRSLRSDDTAVYYCARSMITTRYWYFDVWGKGTTVTVSS VL: DIVMTQSPDSLAVSLGERATINCRASESVDTYGNSFMHWYQQKPGQPPKLLIYLASNLESGVPDRFSGSGSGTDFTLTISSLQAEDVAVYYCQQNNEDPLTFGQGTKLEIK	0.5	0.00021	380000	0.8	0.00026	350000	5	64.7
hz13-12 (antibody, IgG1, V domains shown, also called clone 13-based hz13-12 antibody) VH: EVQLVQSGAEVKKPGATVKISCTSSDFNIKDHFIHWVQQAPGKGLEWMGRIDPEDDETKYAPKFQDRVTITADTSTDTAYMELSSLRSEDTAVYYCAGYGNYEGAMDYWGQGTTVTVSS VL: DVVMTQSPLSLPVTLGQPASISCRASENVNNYGIGFMNWFQQRPGQSPRLLIYAASRRGSGVPDRFSGSGSGTDFTLKISRVEEEDVGVYYCQQSKEVPYTFGGGTKVEIK				0.1	0.0002	3.1e+06	1	42.4
